# According to IntAct's records for PubMed 32296183:
# B1: Golgi SNAP receptor complex member 2 (Homo sapiens), O14653 (parent)
# chain: MDPLFQQTHKQVHEIQSCMGRLETADKQSVHIVENEIQASIDQIFSRLERLEILSSKEPPNKRQNARLRVDQLKYDVQHLQTALRNFQHRRHAREQQERQREELLSRTFTTNDSDTTIPMDESLQFNSSLQKVHNGMDDLILDGHNILDGLRTQRLTLKGTQKKILDIANMLGLSNTVMRLIEKRAFQDKYFMIGGMLLTCVVMFLVVQYLT
# partner: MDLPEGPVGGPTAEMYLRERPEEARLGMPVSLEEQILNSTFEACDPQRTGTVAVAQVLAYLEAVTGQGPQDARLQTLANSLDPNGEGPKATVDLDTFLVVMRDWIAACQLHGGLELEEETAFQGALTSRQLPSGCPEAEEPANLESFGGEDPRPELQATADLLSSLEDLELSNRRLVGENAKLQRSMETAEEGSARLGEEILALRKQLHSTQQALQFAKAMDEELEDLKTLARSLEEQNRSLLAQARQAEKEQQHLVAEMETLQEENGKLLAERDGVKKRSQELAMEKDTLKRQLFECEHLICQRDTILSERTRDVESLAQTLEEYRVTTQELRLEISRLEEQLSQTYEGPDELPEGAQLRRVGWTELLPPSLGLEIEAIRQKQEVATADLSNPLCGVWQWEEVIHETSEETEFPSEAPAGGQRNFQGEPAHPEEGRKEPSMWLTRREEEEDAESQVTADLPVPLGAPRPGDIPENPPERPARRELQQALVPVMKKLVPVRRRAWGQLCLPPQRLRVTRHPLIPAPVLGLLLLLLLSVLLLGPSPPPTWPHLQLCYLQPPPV
# B2: Catenin alpha-3 (Homo sapiens), Q9UI47-2 (parent)
# chain: MSAETPITLNIDPQDLQVQTFTVEKLLEPLIIQVTTLVNCPQNPSSRKKGRSKRASVLLASVEEATWNLLDKGEKIAQEATVLKDELTASLEEVRKESEALKVSAERFTDDPCFLPKREAVVQAARALLAAVTRLLILADMIDVMCLLQHVSAFQRTFESLKNVANKSDLQKTYQKLGKELENLDYLAFKRQQDLKSPNQRDEIAGARASLKENSPLLHSICSACLEHSDVASLKASKDTVCEEIQNALNVISNASQGIQNMTTPPEPQAATLGSALDELENLIVLNPLTVTEEEIRPSLEKRLEAIISGAALLADSSCTRDLHRERIIAECNAIRQALQDLLSEYMNNAGKKERSNTLNIALDNMCKKTRDLRRQLRKAIIDHVSDSFLDTTVPLLVLIEAAKNGREKEIKEYAAIFHEHTSRLVEVANLACSMSTNEDGIKIVKIAANHLETLCPQIINAALALAARPKSQAVKNTMEMYKRTWENHIHVLTEAVDDITSIDDFLAVSGMFLFF
# partner: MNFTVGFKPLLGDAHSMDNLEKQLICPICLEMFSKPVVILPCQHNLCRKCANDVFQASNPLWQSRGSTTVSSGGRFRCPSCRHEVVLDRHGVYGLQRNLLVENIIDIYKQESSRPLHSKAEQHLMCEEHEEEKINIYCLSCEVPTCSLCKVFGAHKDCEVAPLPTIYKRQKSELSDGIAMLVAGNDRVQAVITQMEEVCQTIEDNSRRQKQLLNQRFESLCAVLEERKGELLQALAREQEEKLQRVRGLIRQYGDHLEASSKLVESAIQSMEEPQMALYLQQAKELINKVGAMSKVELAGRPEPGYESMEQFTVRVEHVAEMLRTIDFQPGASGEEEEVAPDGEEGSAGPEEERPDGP
# B3: Catenin alpha-3 (Homo sapiens), Q9UI47-2 (parent)
# chain: B2 chain
# partner: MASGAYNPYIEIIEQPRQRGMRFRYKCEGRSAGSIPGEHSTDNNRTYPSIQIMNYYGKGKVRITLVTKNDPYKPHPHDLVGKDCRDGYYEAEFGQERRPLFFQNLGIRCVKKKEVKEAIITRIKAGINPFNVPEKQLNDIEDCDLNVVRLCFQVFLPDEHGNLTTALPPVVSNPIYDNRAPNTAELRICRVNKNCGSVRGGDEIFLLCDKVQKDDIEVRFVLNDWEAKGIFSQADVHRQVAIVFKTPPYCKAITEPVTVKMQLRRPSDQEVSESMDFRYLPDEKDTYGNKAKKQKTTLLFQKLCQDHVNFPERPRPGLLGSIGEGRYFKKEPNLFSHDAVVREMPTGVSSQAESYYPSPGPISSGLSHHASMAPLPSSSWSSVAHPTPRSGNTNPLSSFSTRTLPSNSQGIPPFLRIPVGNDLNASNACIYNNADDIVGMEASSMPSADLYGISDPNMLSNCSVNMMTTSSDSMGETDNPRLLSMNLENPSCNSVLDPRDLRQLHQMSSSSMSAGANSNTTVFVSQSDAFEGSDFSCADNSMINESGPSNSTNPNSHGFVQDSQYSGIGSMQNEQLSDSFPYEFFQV
# B4: Succinate--CoA ligase [ADP-forming] subunit beta, mitochondrial (Homo sapiens), Q9P2R7 (parent)
# chain: MAASMFYGRLVAVATLRNHRPRTAQRAAAQVLGSSGLFNNHGLQVQQQQQRNLSLHEYMSMELLQEAGVSVPKGYVAKSPDEAYAIAKKLGSKDVVIKAQVLAGGRGKGTFESGLKGGVKIVFSPEEAKAVSSQMIGKKLFTKQTGEKGRICNQVLVCERKYPRREYYFAITMERSFQGPVLIGSSHGGVNIEDVAAESPEAIIKEPIDIEEGIKKEQALQLAQKMGFPPNIVESAAENMVKLYSLFLKYDATMIEINPMVEDSDGAVLCMDAKINFDSNSAYRQKKIFDLQDWTQEDERDKDAAKANLNYIGLDGNIGCLVNGAGLAMATMDIIKLHGGTPANFLDVGGGATVHQVTEAFKLITSDKKVLAILVNIFGGIMRCDVIAQGIVMAVKDLEIKIPVVVRLQGTRVDDAKALIADSGLKILACDDLDEAARMVVKLSEIVTLAKQAHVDVKFQLPI
# Variants of: B1
# Conditions: with kash5_human KASH5, Q8N6L0
row,Variant,effect of a mutation on the interaction
1,MDPLFQQTHKQVHEIQSCMGRLETADKQSVHIVENEIQASIDQIFSRLERLEILSSKEPPNKRQNARLRVDQLKYDVQHLQTALRNFQHRRHAREQQERQREELLSRTFTTNDSDTTIPMDESLQFNSSLQKVHNGMDDLILDWHNILDGLRTQRLTLKGTQKKILDIANMLGLSNTVMRLIEKRAFQDKYFMIGGMLLTCVVMFLVVQYLT [G144W],with no effect

# Variants of: B2
# Conditions: with tri54_human TRIM54, Q9BYV2
row,Variant,effect of a mutation on the interaction
1,MSAETPITLNIDPQDLQVQTFTVEKLLEPLIIQVTTLVNCPQNPSSRKKGRSKRASVLLASVEEATWNLLDKGEKIAQEATVLKDELTASLEEDRKESEALKVSAERFTDDPCFLPKREAVVQAARALLAAVTRLLILADMIDVMCLLQHVSAFQRTFESLKNVANKSDLQKTYQKLGKELENLDYLAFKRQQDLKSPNQRDEIAGARASLKENSPLLHSICSACLEHSDVASLKASKDTVCEEIQNALNVISNASQGIQNMTTPPEPQAATLGSALDELENLIVLNPLTVTEEEIRPSLEKRLEAIISGAALLADSSCTRDLHRERIIAECNAIRQALQDLLSEYMNNAGKKERSNTLNIALDNMCKKTRDLRRQLRKAIIDHVSDSFLDTTVPLLVLIEAAKNGREKEIKEYAAIFHEHTSRLVEVANLACSMSTNEDGIKIVKIAANHLETLCPQIINAALALAARPKSQAVKNTMEMYKRTWENHIHVLTEAVDDITSIDDFLAVSGMFLFF [V94D],disrupting interaction strength

# Variants of: B3
# Conditions: with REL
row,Variant,effect of a mutation on the interaction
1,MSAETPITLNIDPQDLQVQTFTVEKLLEPLIIQVTTLVNCPQNPSSRKKGRSKRASVLLASVEEATWNLLDKGEKIAQEATVLKDELTASLEEDRKESEALKVSAERFTDDPCFLPKREAVVQAARALLAAVTRLLILADMIDVMCLLQHVSAFQRTFESLKNVANKSDLQKTYQKLGKELENLDYLAFKRQQDLKSPNQRDEIAGARASLKENSPLLHSICSACLEHSDVASLKASKDTVCEEIQNALNVISNASQGIQNMTTPPEPQAATLGSALDELENLIVLNPLTVTEEEIRPSLEKRLEAIISGAALLADSSCTRDLHRERIIAECNAIRQALQDLLSEYMNNAGKKERSNTLNIALDNMCKKTRDLRRQLRKAIIDHVSDSFLDTTVPLLVLIEAAKNGREKEIKEYAAIFHEHTSRLVEVANLACSMSTNEDGIKIVKIAANHLETLCPQIINAALALAARPKSQAVKNTMEMYKRTWENHIHVLTEAVDDITSIDDFLAVSGMFLFF [V94D],with no effect

# Variants of: B4
# Conditions: with sc23a_human SEC23A
row,Variant,effect of a mutation on the interaction
1,MAASMFYGRLVAVATLRNHRPRTAQRAAAQVLGSSGLFNNHGLQVQQQQQRNLSLHEYMSMELLQEAGVSVPKGYVAKSPDEAYAIAKKLGSKDVVIKAQVLAGGRGKGTFESGLKGGVKIVFSPEEAKAVSSQMIGKKLFTKQTGEKGRICNQVLVCERKYPRREYYFAITMERSFQGPVLIGSSHGGVNIEDVAAESPEAIIKEPIDIEEGIKKEQALQLAQKMGFPPNIVESAAENMVKLYSLFLKYNATMIEINPMVEDSDGAVLCMDAKINFDSNSAYRQKKIFDLQDWTQEDERDKDAAKANLNYIGLDGNIGCLVNGAGLAMATMDIIKLHGGTPANFLDVGGGATVHQVTEAFKLITSDKKVLAILVNIFGGIMRCDVIAQGIVMAVKDLEIKIPVVVRLQGTRVDDAKALIADSGLKILACDDLDEAARMVVKLSEIVTLAKQAHVDVKFQLPI [D251N],disrupting interaction strength

# Variants of: B4
# Conditions: with mal2_human MAL2, Q969L2
# Chain of mal2_human MAL2, Q969L2 (Q969L2 whole entry): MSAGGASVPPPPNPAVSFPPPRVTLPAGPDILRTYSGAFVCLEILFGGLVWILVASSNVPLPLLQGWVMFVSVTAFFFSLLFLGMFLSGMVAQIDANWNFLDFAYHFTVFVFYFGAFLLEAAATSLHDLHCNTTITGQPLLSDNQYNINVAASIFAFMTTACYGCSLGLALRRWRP
row,Variant,effect of a mutation on the interaction
1,MAASMFYGRLVAVATLRNHRPRTAQRAAAQVLGSSGLFNNHGLQVQQQQQRNLSLHEYMSMELLQEAGVSVPKGYVAKSPDEAYAIAKKLGSKDVVIKAQVLAGGRGKGTFESGLKGGVKIVFSPEEAKAVSSQMIGKKLFTKQTGEKGRICNQVLVCERKYPRREYYFAITMERSFQGPVLIGSSHGGVNIEDVAAESPEAIIKEPIDIEEGIKKEQALQLAQKMGFPPNIVESAAENMVKLYSLFLKYNATMIEINPMVEDSDGAVLCMDAKINFDSNSAYRQKKIFDLQDWTQEDERDKDAAKANLNYIGLDGNIGCLVNGAGLAMATMDIIKLHGGTPANFLDVGGGATVHQVTEAFKLITSDKKVLAILVNIFGGIMRCDVIAQGIVMAVKDLEIKIPVVVRLQGTRVDDAKALIADSGLKILACDDLDEAARMVVKLSEIVTLAKQAHVDVKFQLPI [D251N],disrupting interaction strength

# Variants of: B4
# Conditions: with ar6p1_human ARL6IP1, Q15041
# Chain of ar6p1_human ARL6IP1, Q15041 (Q15041 whole entry): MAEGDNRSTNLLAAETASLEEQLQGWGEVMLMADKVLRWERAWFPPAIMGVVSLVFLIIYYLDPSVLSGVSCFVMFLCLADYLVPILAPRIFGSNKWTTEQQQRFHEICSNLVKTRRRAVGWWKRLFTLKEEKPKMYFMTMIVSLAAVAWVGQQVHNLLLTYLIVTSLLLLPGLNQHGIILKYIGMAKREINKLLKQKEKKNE
row,Variant,effect of a mutation on the interaction
1,MAASMFYGRLVAVATLRNHRPRTAQRAAAQVLGSSGLFNNHGLQVQQQQQRNLSLHEYMSMELLQEAGVSVPKGYVAKSPDEAYAIAKKLGSKDVVIKAQVLAGGRGKGTFESGLKGGVKIVFSPEEAKAVSSQMIGKKLFTKQTGEKGRICNQVLVCERKYPRREYYFAITMERSFQGPVLIGSSHGGVNIEDVAAESPEAIIKEPIDIEEGIKKEQALQLAQKMGFPPNIVESAAENMVKLYSLFLKYNATMIEINPMVEDSDGAVLCMDAKINFDSNSAYRQKKIFDLQDWTQEDERDKDAAKANLNYIGLDGNIGCLVNGAGLAMATMDIIKLHGGTPANFLDVGGGATVHQVTEAFKLITSDKKVLAILVNIFGGIMRCDVIAQGIVMAVKDLEIKIPVVVRLQGTRVDDAKALIADSGLKILACDDLDEAARMVVKLSEIVTLAKQAHVDVKFQLPI [D251N],disrupting interaction strength
